Experiments:
Experiment in all cases: holdup assay
Design in all cases: key: below the threshold = too weak to quantify, mostly under pKd 3.1 to 4
CASK, O14936 = molecular target: CASK, O14936
DFNB31_1, Q9P202 = molecular target: T1, DFNB31_1, Q9P202
T1 sequence (Q9P202 135-233, limits assumed, looked up): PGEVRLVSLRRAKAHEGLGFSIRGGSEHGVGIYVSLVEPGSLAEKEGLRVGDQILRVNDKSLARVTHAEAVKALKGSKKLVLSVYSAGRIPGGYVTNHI

DLG3_2, Q92796 = molecular target: T2, DLG3_2, Q92796
T2 sequence (Q92796 221-321, limits assumed, looked up): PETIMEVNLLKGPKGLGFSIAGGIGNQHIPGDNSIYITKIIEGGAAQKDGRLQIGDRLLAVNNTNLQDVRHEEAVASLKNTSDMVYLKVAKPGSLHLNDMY

DLG4_3, P78352 = molecular target: DLG4_3, P78352
Chain of DLG4_3, P78352 (P78352 306-403): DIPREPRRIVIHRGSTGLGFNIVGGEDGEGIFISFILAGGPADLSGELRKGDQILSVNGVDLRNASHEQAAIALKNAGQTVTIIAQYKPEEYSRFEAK

DLG5_1, Q8TDM6 = molecular target: DLG5_1, Q8TDM6
Chain of DLG5_1, Q8TDM6 (Q8TDM6 617-713): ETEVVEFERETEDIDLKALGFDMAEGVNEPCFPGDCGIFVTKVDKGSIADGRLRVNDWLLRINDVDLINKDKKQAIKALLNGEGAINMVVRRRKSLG

FRMPD2_2, Q68DX3 = molecular target: FRMPD2_2, Q68DX3
Chain of FRMPD2_2, Q68DX3 (Q68DX3 944-1038): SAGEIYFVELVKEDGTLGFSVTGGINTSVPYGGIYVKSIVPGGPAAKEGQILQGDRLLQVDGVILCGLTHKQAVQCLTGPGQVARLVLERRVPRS

GOPC, Q9HD26 = molecular target: GOPC, Q9HD26
GORASP2, Q9H8Y8 = molecular target: GORASP2, Q9H8Y8
GRIP2_5, Q9C0E4 = molecular target: GRIP2_5, Q9C0E4
Chain of GRIP2_5, Q9C0E4 (Q9C0E4 544-642): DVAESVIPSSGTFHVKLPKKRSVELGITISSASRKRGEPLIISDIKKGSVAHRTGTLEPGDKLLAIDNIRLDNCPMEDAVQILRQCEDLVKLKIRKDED

HTRA4, P83105 = molecular target: T3, HTRA4, P83105
T3 sequence (P83105 378-476, limits assumed, looked up): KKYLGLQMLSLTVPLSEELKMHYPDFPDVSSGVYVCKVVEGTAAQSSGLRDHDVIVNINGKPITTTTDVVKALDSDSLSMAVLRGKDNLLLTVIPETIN

IL16_1, Q14005 = molecular target: IL16_1, Q14005
Chain of IL16_1, Q14005 (Q14005 210-306): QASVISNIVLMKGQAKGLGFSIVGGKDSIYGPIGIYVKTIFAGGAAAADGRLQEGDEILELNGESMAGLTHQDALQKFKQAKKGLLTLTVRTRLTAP

IL16_4, Q14005 = molecular target: IL16_4, Q14005
Chain of IL16_4, Q14005 (Q14005 1229-1329): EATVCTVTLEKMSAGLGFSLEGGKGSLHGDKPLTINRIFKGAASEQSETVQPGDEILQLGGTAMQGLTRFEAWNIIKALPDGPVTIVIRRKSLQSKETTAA

Inadl_8, Q8NI35 = molecular target: Inadl_8, Q8NI35
Chain of Inadl_8, Q8NI35 (Q8NI35 1425-1530): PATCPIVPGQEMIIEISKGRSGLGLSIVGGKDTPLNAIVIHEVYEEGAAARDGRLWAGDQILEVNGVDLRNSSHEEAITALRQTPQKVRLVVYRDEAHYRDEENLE

LIMK2, P53671 = molecular target: LIMK2, P53671
Chain of LIMK2, P53671 (P53671 143-248): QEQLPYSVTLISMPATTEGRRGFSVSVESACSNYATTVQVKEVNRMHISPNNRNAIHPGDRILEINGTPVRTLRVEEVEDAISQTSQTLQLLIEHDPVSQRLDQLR

LIN7B, Q9HAP6 = molecular target: T4, LIN7B, Q9HAP6
T4 sequence (Q9HAP6 88-185, limits assumed, looked up): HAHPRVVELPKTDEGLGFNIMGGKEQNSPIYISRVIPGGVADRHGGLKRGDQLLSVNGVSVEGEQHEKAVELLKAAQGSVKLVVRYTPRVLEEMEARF

MPDZ_10, O75970 = molecular target: T5, MPDZ_10, O75970
T5 sequence (O75970 1624-1722, limits assumed, looked up): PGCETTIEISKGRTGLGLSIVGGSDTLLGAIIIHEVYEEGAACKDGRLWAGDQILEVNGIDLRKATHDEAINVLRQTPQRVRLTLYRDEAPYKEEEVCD

NHERF3_1, Q5T2W1 = molecular target: T6, NHERF3_1, Q5T2W1
T6 sequence (Q5T2W1 4-100, limits assumed, looked up): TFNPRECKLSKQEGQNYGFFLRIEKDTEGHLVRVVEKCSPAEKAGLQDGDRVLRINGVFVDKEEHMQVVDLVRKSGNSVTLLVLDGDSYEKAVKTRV

NOS1, P29475 = molecular target: NOS1, P29475
Chain of NOS1, P29475 (P29475 9-101): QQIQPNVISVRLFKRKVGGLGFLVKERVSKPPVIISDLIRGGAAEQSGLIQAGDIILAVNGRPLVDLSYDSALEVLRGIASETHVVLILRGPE

PARD3_3, Q8TEW0 = molecular target: PARD3_3, Q8TEW0
Chain of PARD3_3, Q8TEW0 (Q8TEW0 582-685): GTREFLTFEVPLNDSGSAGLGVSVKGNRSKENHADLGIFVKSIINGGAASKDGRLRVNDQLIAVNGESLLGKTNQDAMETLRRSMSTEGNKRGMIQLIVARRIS

PDLIM1, O00151 = molecular target: PDLIM1, O00151
Chain of PDLIM1, O00151 (O00151 1-87): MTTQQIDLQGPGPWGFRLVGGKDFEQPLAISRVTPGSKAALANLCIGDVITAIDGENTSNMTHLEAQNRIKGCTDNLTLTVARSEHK

RAPGEF6, Q8TEU7 = molecular target: T7, RAPGEF6, Q8TEU7
T7 sequence (Q8TEU7 525-625, limits assumed, looked up): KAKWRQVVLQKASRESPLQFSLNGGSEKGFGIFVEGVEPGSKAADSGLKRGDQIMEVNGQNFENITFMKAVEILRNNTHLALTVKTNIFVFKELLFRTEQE

SCRIB_1, Q14160 = molecular target: SCRIB_1, Q14160
Chain of SCRIB_1, Q14160 (Q14160 718-814): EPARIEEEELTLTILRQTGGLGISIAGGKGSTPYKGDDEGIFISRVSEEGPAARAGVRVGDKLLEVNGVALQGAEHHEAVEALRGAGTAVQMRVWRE

SNTA1, Q13424 = molecular target: T8, SNTA1, Q13424
T8 sequence (Q13424 82-180, limits assumed, looked up): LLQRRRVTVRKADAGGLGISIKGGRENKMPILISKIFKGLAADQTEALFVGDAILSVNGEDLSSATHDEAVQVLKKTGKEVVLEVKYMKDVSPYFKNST

SNTG1, Q9NSN8 = molecular target: T9, SNTG1, Q9NSN8
T9 sequence (Q9NSN8 52-150, limits assumed, looked up): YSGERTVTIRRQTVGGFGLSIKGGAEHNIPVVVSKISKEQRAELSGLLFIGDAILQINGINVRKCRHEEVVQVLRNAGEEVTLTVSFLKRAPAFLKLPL

SNTG2, Q9NY99 = molecular target: T10, SNTG2, Q9NY99
T10 sequence (Q9NY99 68-166, limits assumed, looked up): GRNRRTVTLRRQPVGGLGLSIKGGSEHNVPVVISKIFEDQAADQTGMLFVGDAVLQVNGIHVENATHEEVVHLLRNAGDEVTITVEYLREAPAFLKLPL

TIAM2, Q8IVF5 = molecular target: T11, TIAM2, Q8IVF5
T11 sequence (Q8IVF5 885-986, limits assumed, looked up): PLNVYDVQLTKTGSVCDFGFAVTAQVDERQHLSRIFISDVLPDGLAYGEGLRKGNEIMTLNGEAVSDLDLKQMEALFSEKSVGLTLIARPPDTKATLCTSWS

[1] = modified: phospho on T at position -2 from the C-terminal residue
[2] = plain residues with an end cap or a label only (N-terminal biotin on a linker: ado-ado)

Chain of CASK, O14936 (O14936 487-570): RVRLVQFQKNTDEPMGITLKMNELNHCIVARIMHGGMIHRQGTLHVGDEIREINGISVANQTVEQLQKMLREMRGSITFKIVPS

SKPTRRETEV [HPV35-E6_-2P, P27228] was tested, and the pKd (CASK, O14936; [1]) was “below the threshold”, the pKd (DFNB31_1, Q9P202; [1]) was “below the threshold” and the pKd (DLG3_2, Q92796; [1]) was “below the threshold”. The pKd (DLG4_3, P78352; [1]) was “below the threshold”, the pKd (DLG5_1, Q8TDM6; [1]) was “below the threshold” and the pKd (FRMPD2_2, Q68DX3; [1]) was “below the threshold”. The pKd (GOPC, Q9HD26; [1]) was “below the threshold”, the pKd (GORASP2, Q9H8Y8; [1]) was “below the threshold” and the pKd (GRIP2_5, Q9C0E4; [1]) was “below the threshold”. For the same binder, the pKd (HTRA4, P83105; [1]) was “below the threshold”, the pKd (IL16_1, Q14005; [1]) was “below the threshold” and the pKd (IL16_4, Q14005; [1]) was “below the threshold”. The pKd (Inadl_8, Q8NI35; [1]) was “below the threshold”, the pKd (LIMK2, P53671; [1]) was “below the threshold” and the pKd (LIN7B, Q9HAP6; [1]) was “below the threshold”. The pKd (MPDZ_10, O75970; [1]) was “below the threshold”, the pKd (NHERF3_1, Q5T2W1; [1]) was “below the threshold” and the pKd (NOS1, P29475; [1]) was “below the threshold”. The pKd (PARD3_3, Q8TEW0; [1]) was “below the threshold”, the pKd (PDLIM1, O00151; [1]) was “below the threshold” and the pKd (RAPGEF6, Q8TEU7; [1]) was “below the threshold”. For the same binder, the pKd (SCRIB_1, Q14160; [1]) was “below the threshold”, the pKd (SNTA1, Q13424; [1]) was “below the threshold” and the pKd (SNTG1, Q9NSN8; [1]) was “below the threshold”. For the same binder, the pKd (SNTG2, Q9NY99; [1]) was “below the threshold” and the pKd (TIAM2, Q8IVF5; [1]) was “below the threshold”.

LGRSTPQSEV [DGKH, Q86XP1] was tested, and the pKd (CASK, O14936; [2]) was “below the threshold”, the pKd (DFNB31_1, Q9P202; [2]) was 3.52 and the pKd (DLG3_2, Q92796; [2]) was “below the threshold”. The pKd (DLG4_3, P78352; [2]) was “below the threshold”, the pKd (DLG5_1, Q8TDM6; [2]) was “below the threshold” and the pKd (FRMPD2_2, Q68DX3; [2]) was “below the threshold”. The pKd (GOPC, Q9HD26; [2]) was 3.87, the pKd (GORASP2, Q9H8Y8; [2]) was “below the threshold” and the pKd (GRIP2_5, Q9C0E4; [2]) was “below the threshold”. For the same binder, the pKd (HTRA4, P83105; [2]) was “below the threshold”, the pKd (IL16_1, Q14005; [2]) was “below the threshold” and the pKd (IL16_4, Q14005; [2]) was “below the threshold”. The pKd (Inadl_8, Q8NI35; [2]) was 3.98, the pKd (LIMK2, P53671; [2]) was “below the threshold” and the pKd (LIN7B, Q9HAP6; [2]) was “below the threshold”. For the same binder, the pKd (MPDZ_10, O75970; [2]) was “below the threshold”, the pKd (NHERF3_1, Q5T2W1; [2]) was “below the threshold” and the pKd (NOS1, P29475; [2]) was “below the threshold”. The pKd (PARD3_3, Q8TEW0; [2]) was “below the threshold”, the pKd (PDLIM1, O00151; [2]) was “below the threshold” and the pKd (RAPGEF6, Q8TEU7; [2]) was “below the threshold”. It also gave a pKd (SCRIB_1, Q14160; [2]) of 3.77, a pKd (SNTA1, Q13424; [2]) of 3.8 and a pKd (SNTG1, Q9NSN8; [2]) of 3.96. The pKd (SNTG2, Q9NY99; [2]) was “below the threshold” and the pKd (TIAM2, Q8IVF5; [2]) was “below the threshold”.

From article PMC9482650, “Quantitative fragmentomics allow affinity mapping of interactomes” (Nature Communications, 2022)
